In patent US20220213157A1 (PEKING UNIVERSITY, published 2022):
Each block holds one molecule with its values, some of them ahead of it.

What was measured:
[1] = molecular target: human CSQ2 D348C mutant, without the signal peptide (human) (UniProt O14958); test: cell-based or functional assay
[2] = molecular target: the molecule itself; test: crystal structure of rat CSQ2 with 200 mM Ca2+, homodimers in the asymmetric unit
Procedure: Human CSQ2 crystals were obtained according to a hanging drop vapor diffusion method (24-well hanging drop plate, XtalQuest) at 16° C. using 1.5 μL protein solution (25 mg/ml) and 1.5 μL reservoir solution containing 100 mM Na cacodylate (pH 6.0), 25% (vol/vol) 2-methyl-2,4-pentanedio (MPD) and 40 mM calcium lactate. Small needle-like crystals appeared within two days. After several rounds of stick seeding, the crystals had grown to approximately 50×50×400 μm. The Se-Met CSQ2 crystals were obtained using the same process. Diffraction data of native and Se-Met crystals were collected and were prcessed using CCP4 program suit (see, e.g., Winn, M. D. et al. Overview of the CCP4 suite and current developments. Acta. Crystallogr. D. Biol. Crystallogr. 67, 235-242 (2011). doi: 10.1107/S0907444910045749). The initial phase was determined by MR-SAD using PHENIX (see, e.g., P. D. Adams et al., PHENIX: a comprehensive Python-based system for macromolecular structure solution. Acta. Crystallogr. D. Biol. Crystallogr. 66, 213-221 (2010). doi: 10.1107/S0907444909052925). […] The phase was determined by molecular replacement using human CSQ2 structure as a searching model. […]
The crystal structures of the human CSQ2 protein and the rat CSQ2 protein were determined to be 2.2 Å and 2.8 Å with a high concentration of Ca²⁺ in the reservoir solution (40 mM Ca²⁺ for human CSQ2, 200 mM Ca²⁺ for rat CSQ2). […]

current of the CSQ2-immobilized single-molecule junction at 25 mV bias (1 mM Ca2+, 1.2 mM Mg2+) [1]: 15 pA
Molecule: human CSQ2 D348C mutant, without the signal peptide (from UniProt O14958 20-399)

B1: rat CSQ2 (calsequestrin 2), amino acids 20-413, without the signal peptide (other)
chain: EEGLNFPTYDGKDRVVSLSEKNLKQVLKRYDLLCLYYHEPVSSDKVAQKQFQLKEIVLELVAQVLEHKNIGFVMVDSRKEAKLAKRLGFSEEGSLYVLKGGRTIEFDGEFAADVLVEFLLDLIEDPVEIVNNKLEVQAFERIEDQIKLLGFFKNEDSEYYKAFQEAAEHFQPYIKFFATFDKGVAKKLSLKMNEVGFYEPFMDEPSVIPNKPYTEEELVEFVKEHQRPTLRPLRPEDMFETWEDDLNGIHIVAFAEKSDPDGYEFLEILKQVARDNTDNPDLSILWIDPDDFPLLVAYWEKTFKIDLFKPQIGVVNVTDADSVWMEIPDDDDLPTAEELEDWIEDVLSGKINTEDDDNEDEDDDGDNDNDDDDDDDDNDDEDNDDDDDDDDDDE
notes: Entered as the monomer
binding result [2]: binds
